Legend:
[1] = target: T1, canine PD-L1 on cPD-L1-EGFP expressing COS-7 cells (canine, UniProt E2RKZ5 19-289); assay: flow cytometry (section 2.5)
T1 construct: Transient expression in COS-7 cells; also called canine PD-L1 expressing cells; cPD-L1-EGFP expressing cell
T1 sequence: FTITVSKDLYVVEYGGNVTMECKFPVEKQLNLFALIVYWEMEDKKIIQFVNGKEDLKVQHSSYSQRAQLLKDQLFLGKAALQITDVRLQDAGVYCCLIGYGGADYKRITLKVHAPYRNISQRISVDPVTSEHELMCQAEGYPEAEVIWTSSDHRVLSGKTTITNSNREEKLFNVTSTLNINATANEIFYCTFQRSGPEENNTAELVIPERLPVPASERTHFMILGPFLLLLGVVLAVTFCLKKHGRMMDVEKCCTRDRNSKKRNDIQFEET
Method: In order to identify rat anti-bovine PD-L1 monoclonal antibody showing cross-reactivity with canine PD-L1, flow cytometry was performed using the anti-bovine PD-L1 antibody prepared in 2.1 above. The anti-bovine PD-L1 antibody (10 μg/ml) was reacted with 2×10⁵-1×10⁶ cells at room temperature for 30 min. After washing, the anti-bovine PD-L1 antibody was detected with allophycocyanine-labeled anti-rat Ig goat antibody (Beckman Coulter). FACS Verse (Becton, Dickinson and Company) was used for analysis. As negative controls, rat IgG2a (κ) isotype control (BD Biosciences), rat IgG1 (κ) isotype control (BD Biosciences) and rat IgM (κ) isotype control (BD Biosciences) were used. For every washing operation and dilution of antibodies, 10% inactivated goat serum-supplemented PBS was used (MaekawaN, Konnai S, Ikebuchi R, Okagawa T, Adachi M, Takagi S, KagawaY, Nakajima C, Suzuki Y, Murata S, Ohashi K. PLoS One. 2014 Jun. 10; 9(6):e98415 which is an article describing the use of three bovine PD-L1 monoclonal antibodies: 4G12 (Rat IgG2a (κ)), 5A2 (Rat IgG1 (κ)) and 6G7 (Rat IgM (κ)).

canine PD-L1-His = target: T2, canine PD-L1-His (canine); assay: SPR (Biacore X100), cPD-L1-His captured by anti-histidine antibody on a CM5 chip, antibody as analyte
T2 construct: extracellular domain; Made in Expi293F cells; also called cPD-L1-His
Method: Using a biomolecular interaction analyzer (Biacore X100), the binding avidities to cPD-L1-His of rat anti-bovine PD-L1 monoclonal antibody 4G12 and rat-canine chimeric anti-PD-L1 antibody c4G12 were assessed. Briefly, anti-histidine antibody was fixed on CM5 censor chip, followed by capturing of cPD-L1-His. Subsequently, monoclonal antibodies were added as analyte to observe specific binding. […] Further, the binding avidities of canine PD-1-Ig and CD80-Ig to cPD-L1-His were measured in the same manner and found to be clearly lower than that of rat-canine chimeric anti-PD-L1 antibody c4G12 (Table 1).

[2] = target: T1, canine PD-L1 on cPD-L1-EGFP expressing …; assay: flow cytometry on canine PD-L1 expressing cells
bovine FcγRI-His = target: T3, bovine FcγRI-His (bovine); assay: ELISA: antibody immobilized at 1.56 to 50 nM, bovine FcγRI-His added at 10 µg/ml, detection with anti-polyhistidine antibody and HRP anti-mouse IgG [A]
T3 construct: extracellular domain; Made in Expi293F cells; also called soluble bovine FcγRI
Method: (§1) Subsequently, each well was washed with 200 μl of 0.05% Tween 20-supplemented PBS (PBS-T) five times, followed by blocking with SuperBlock (PBS) Blocking Buffer (Thermo Fisher Scientific) at 37° C. for 30 min. Each well was washed again in the same manner. Then, bovine FcγRI-His, FcγRII-His, FcγRIII-His or Fcγ2R-His was added to each well at a final concentration of 10 μg/ml and reacted at 37° C. for 1 hr. After washing, anti-polyhistidine tag mouse monoclonal antibody (Abcam) was reacted at 37° C. for 30 min. Subsequently, each well was washed, and horseradish peroxidase-labeled anti-mouse IgG goat polyclonal antibody (MP Biomedicals) was reacted at 37° C. for 30 min. Each well was washed again, and then TMB One Component Substrate (Bethyl) was added for coloring. Thereafter, the enzyme reaction was terminated with 0.18 M dilute sulfuric acid, and absorbance (450 nm) was measured with Microplate Reader MTP-900 (Corona Electric).

bovine FcγRII-His = target: T4, bovine FcγRII-His (bovine, UniProt Q28110 43-225); assay: ELISA: antibody immobilized at 1.56 to 50 nM, bovine FcγRII-His added at 10 µg/ml [B]
T4 construct: extracellular domain; Made in Expi293F cells; also called soluble bovine FcγRII
T4 sequence: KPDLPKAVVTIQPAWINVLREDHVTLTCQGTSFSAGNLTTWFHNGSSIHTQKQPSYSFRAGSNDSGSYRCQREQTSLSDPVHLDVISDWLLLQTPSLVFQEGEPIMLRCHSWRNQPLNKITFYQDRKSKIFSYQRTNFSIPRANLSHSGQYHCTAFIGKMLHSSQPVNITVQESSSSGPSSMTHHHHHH
Method: as §1

bovine PD-1-His = target: T5, bovine PD-1-His (bovine); assay: SPR (Biacore X100), bovine PD-1-His immobilised on a CM5 chip, antibody as analyte, single kinetics, 3 repeats
T5 construct: extracellular domain; Made in Expi293F cells; also called soluble bovine PD-1-His; PD-1 protein
Method: The binding avidities to bovine PD-1 of rat anti-bovine PD-1 antibody 5D2 and rat-bovine chimeric anti-bovine PD-1 antibody ch5D2 were measured by surface plasmon resonance using a biomolecular interaction analyzer (Biacore X100). Briefly, bovine PD-1-His (described above) was immobilized on a CM5 sensor chip (GE Healthcare) as a ligand. Subsequently, rat anti-bovine PD-1 antibody 5D2 or rat-bovine chimeric anti-bovine PD-1 antibody ch5D2 was reacted as an analyte, followed by single kinetics analysis. The experiment was repeated 3 times under the same conditions. Binding constant (kd value) and dissociation constant (ka value) were determined in each experiment, and binding avidity (KD value) was obtained.

B1: rat anti-bovine PD-L1 monoclonal antibody 4G12 (antibody, V domains shown)
VH: QVQLQQSGAELVKPGSSVKISCKASGYTFTSNFMHWVKQQPGNGLEWIGWIYPEYGNTKYNQKFDGKATLTADKSSSTAYMQLSSLTSEDSAVYFCASEEAVISLVYWGQGTLVTVSS
VL: DIAITQSPSSVAVSVGETVTLSCKSSQSLLYSENQKDYLGWYQQKPGQTPKPLIYWATNRHTGVPDRFTGSGSGTDFTLIISSVQAEDLADYYCGQYLVYPFTFGPGTKLELK
For B1, the binding result [1] was “binds” and the kon (canine PD-L1-His) was 2.42e+06 M⁻¹ s⁻¹.

B2: rat-canine chimeric anti-PD-L1 antibody c4G12 (antibody, V domains shown)
VH: B1 VH
VL: DIAITQSPSSVAVSVGETVTLSCKSSQSLLYSENQKDYLGWYQQKPGQTPKPLIYWATNRHTGVPDRFTGSGSGTDFTLIISSVQAEDLADYYCGQYLVYPFTFGPGTKLELKQ
notes: 4G12 variable regions on canine IgG-D (equivalent to human IgG4) heavy and canine lambda light constant regions
B2 was tested, and the kon (canine PD-L1-His) was 3.14e+06 M⁻¹ s⁻¹ and the binding result [2] was “binds”.

B3: rat-bovine chimeric anti-bovine PD-1 antibody ch5D2 having wild-type bovine IgG1 (IgG1 WT) (antibody)
heavy: QVQLKETGPGLVQPTQTLSITCTVSGFSLTSYYIQWVRQTPGKGLEWMGFIRSGGSTEYNSEFKSRLSINRDTSKNQVFLKMNSLKTEDTGVYYCARTSSGYEGGFDYWGQGVMVTVSSASTTAPKVYPLSSCCGDKSSSTVTLGCLVSSYMPEPVTVTWNSGALKSGVHTFPAVLQSSGLYSLSSMVTVPGSTSGQTFTCNVAHPASSTKVDKAVDPTCKPSPCDCCPPPELPGGPSVFIFPPKPKDTLTISGTPEVTCVVVDVGHDDPEVKFSWFVDDVEVNTATTKPREEQFNSTYRVVSALRIQHQDWTGGKEFKCKVHNEGLPAPIVRTISRTKGPAREPQVYVLAPPQEELSKSTVSLTCMVTSFYPDYIAVEWQRNGQPESEDKYGTTPPQLDADSSYFLYSKLRVDRNSWQEGDTYTCVVMHEALHNHYTQKSTSKSAGK
light: DVVLTQTPVSLSVTLGDQASISCRSSQSLEYSDGYTYLEWYLQKPGQSPQLLIYGVSNRFSGVPDRFIGSGSGTDFTLKISRVEPEDLGVYYCFQATHDPDTFGAGTKLELKQPKSPPSVTLFPPSTEELNGNKATLVCLISDFYPGSVTVVWKADGSTITRNVETTRASKQSNSKYAASSYLSLTSSDWKSKGSYSCEVTHEGSTVTKTVKPSECS
notes: Made in Expi293F cells; also called ch5D2 IgG1 WT
In the case of B3, the “EC50 (read off the curve)” value (bovine FcγRI-His) is reported as roughly 9 nM.

B4: rat-bovine chimeric anti-bovine PD-1 antibody ch5D2 (mutated bovine IgG1, IgG1 ADCC-) (antibody)
heavy: QVQLKETGPGLVQPTQTLSITCTVSGFSLTSYYIQWVRQTPGKGLEWMGFIRSGGSTEYNSEFKSRLSINRDTSKNQVFLKMNSLKTEDTGVYYCARTSSGYEGGFDYWGQGVMVTVSSASTTAPKVYPLSSCCGDKSSSTVTLGCLVSSYMPEPVTVTWNSGALKSGVHTFPAVLQSSGLYSLSSMVTVPGSTSGQTFTCNVAHPASSTKVDKAVDPTCKPSPCDCCPPPPVAGPSVFIFPPKPKDTLTISGTPEVTCVVVDVGHDDPEVKFSWFVDDVEVNTATTKPREEQFNSTYRVVSALRIQHQDWTGGKEFKCKVHNEGLPSSIVRTISRTKGPAREPQVYVLAPPQEELSKSTVSLTCMVTSFYPDYIAVEWQRNGQPESEDKYGTTPPQLDADSSYFLYSKLRVDRNSWQEGDTYTCVVMHEALHNHYTQKSTSKSAGK
light: B3 light
notes: 5D2 variable regions on bovine IgG1 (modified from X62916); also called ch5D2 IgG1 ADCC-
For B4, the binding result (bovine FcγRII-His) was “no binding (tested: 50 nM)”, the Kd (bovine PD-1-His) was 10.5 nM and the koff (bovine PD-1-His) was 0.000216 s⁻¹. The kon (bovine PD-1-His) was 20700 M⁻¹ s⁻¹.

Reference: patent publication US20250066483A1 (FUSO PHARMACEUTICAL INDUSTRIES, published 2025)
